# Assay results: paper PMC3411398, “Quaternary structures of recombinant, cellular, and serum forms of Thymidine Kinase 1 from dogs and humans” (BMC Biochemistry, 2012)
# “And” between values parts separate entries of the source, which are not always exact repeats. Identical values can stand only once.
# B1: human serum TK1 (enzyme, human (endogenous in serum), UniProt P04183 1-234, looked up)
# chain: MSCINLPTVLPGSPSKTRGQIQVILGPMFSGKSTELMRRVRRFQIAQYKCLVIKYAKDTRYSSSFCTHDRNTMEALPACLLRDVAQEALGVAVIGIDEGQFFPDIVEFCEAMANAGKTVIVAALDGTFQRKPFGAILNLVPLAESVVKLTAVCMECFREAAYTKRLGTEKEVEVIGGADKYHSVCRLCYFKKASGQPAGPDNKENCPVPGKPGEAVAARKLFAPQQILQCSPAN
# notes: thymidine kinase 1, human, serum form; polypeptide of apparent MW 25 kDa on western blot; source: endogenous, pooled sera from human patients with acute lymphocytic leukemia
# B2: cellular (native) human TK1 from CEM cells (enzyme, human (endogenous in CCRF-CEM), UniProt P04183 1-234, looked up)
# chain: B1 chain
# notes: thymidine kinase 1, human, endogenous in CCRF-CEM cells; 25 kDa band on western blot; also called cytosolic human TK1; source: endogenous, crude CCRF-CEM cell extract
# B3: recombinant human thymidine kinase 1 (enzyme, UniProt P04183 1-234, looked up)
# chain: B1 chain
# notes: thymidine kinase 1, human, full-length cDNA; vector pEXP-5NT/TOPO; also called hTK1; human TK1
# How the values were obtained:
# [1] = molecular target: cellular (native) canine TK1 from MDCK cells (dog (endogenous in MDCK)); assay: SEC; Superose 12, 0.01 M HEPES/KOH pH 7.6, 0.15 M NH4Cl, 0.02% NaN3; crude cell extracts (MDCK, CEM), untreated or treated with DTE before chromatography; fractions read by TK1 activity and western blot
# [2] = molecular target: canine serum TK1 (dog (endogenous in serum)); assay: SEC; Superose 12, 0.01 M HEPES/KOH pH 7.6, 0.15 M NH4Cl, 0.02% NaN3; sera diluted 1:1, untreated or pre-treated with 20 mM DTE; fractions read by TK1 activity and immunoaffinity capture with western blot
# [3] = molecular target: the molecule itself; assay: as above
# [4] = molecular target: the molecule itself; assay: SEC; Superose 12, 0.01 M HEPES/KOH pH 7.6, 0.15 M NH4Cl, 0.02% NaN3; crude cell extracts (MDCK, CEM), untreated or treated with DTE before chromatography; fractions read by TK1 activity and western blot
# [5] = molecular target: the molecule itself; assay: SEC; Superose 12, 0.01 M HEPES/KOH pH 7.6, 0.15 M NH4Cl, 0.02% NaN3, no reducing agent in the buffer; 4 ug of freshly isolated recombinant TK1, untreated or pre-incubated with 20 mM DTE for 30 min on ice; fractions read by TK1 activity and western blot
molecule,measurement,setting,value
cellular (native) canine TK1 from MDCK cells (enzyme),stoichiometry N,[1],2 and 4
canine serum TK1 (enzyme),stoichiometry N,[2],2 and 4
B1,stoichiometry N,[3],2 and 4
B2,stoichiometry N,[4],2 and 4
B3,stoichiometry N,[5],2 and 4
